From paper PMC11054746, “GRPR-Antagonists Carrying DOTAGA-Chelator via Positively Charged Linkers: Perspectives for Prostate Cancer Theranostics” (Pharmaceutics, 2024)
Where two headings read alike, the source gives them in different places.

Columns and labels:
PC-3 xenografts = test: in vivo; design: species or system BALB/C nu/nu mice; settings: mouse; for Kidneys uptake: BALB/C nu/nu
Method: (§1) All in vivo studies were performed following European guidelines on laboratory animal protection. The in vivo stability experiments were carried out in healthy male Swiss albino mice; the study protocol was approved by the Department of Agriculture and Veterinary Service of the Prefecture of Athens (protocol number #440448, 01-06-2021). The biodistribution, in vivo targeting specificity assay, and SPECT/CT imaging experiments were carried out on BALB/C nu/nu mice. The Ethics Committee for Animal Research in Uppsala (Sweden) approved the latter in vivo animal studies (permit number 00473/21). The BALB/C nu/nu mice were implanted with GRPR-positive prostate cancer xenografts by subcutaneous injection on the right hind leg of PC-3 cells suspended in PBS (7 × 10^6 cells/mouse) four weeks before the biodistribution studies.
(§2) The mice were iv injected with 40 pmol peptide (30 kBq in a total volume of 100 μL 1% bovine serum albumin (BSA) in PBS). […] At the indicated time points, mice were euthanized under anesthesia. The organs of interest were collected, weighed, and the sample radioactivity content was measured on the gamma counter. The percentage of injected activity per gram (%IA/g) of collected tumors, organs and tissues, the %IA for the remaining gastrointestinal tract and carcass, as well as the tumor-to-organ ratios (T/O) were calculated.

in vivo = test: in vivo; design: species or system BALB/C nu/nu mice; settings: BALB/C nu/nu, mouse, iv, total radioactivity; for tissue to tissue ratio at 4 h: Tumor-to-organ ratio
Method: as §1, §2

[1] = Radiochemical stability: indium release in PBS or with EDTA excess, by iTLC; type: physicochemical; settings: room temperature, 0.2 M citric acid, mean ± sd, n = 3
Method: The radiochemical yield was analyzed with instant thin layer chromatography (iTLC) strips (Agilent Technologies, Santa Clara, CA, USA), using 0.2 M citric acid buffer as a mobile phase (Rf = 0 for the radiolabeled peptide and Rf = 1 for free indium). The iTLC results were analyzed using Cyclone® Plus Phosphorimager (PerkinElmer, Hägersten, Sweden). The radiochemical stability was determined by incubating the radiolabeled compounds with phosphate-buffered saline (PBS) or a 1000-fold molar excess of ethylenediaminetetraacetic acid (EDTA) for 1 h at room temperature. The percentage of indium release was assessed by iTLC using 0.2 M citric acid as mobile phase. Stability tests were performed in triplicate for each compound.

PC-3 cells = test: Cellular internalization; type: cell-based, human; settings: 1 nM, acid wash, mean of 3 dishes ± sd, normalized to maximum cell association at 24 h
Method: For the cellular internalization assay, PC-3 cells (1 × 10^6 cells/dish) were used. The cells were incubated with 1 mL (1 nM) of solution containing the radiolabeled peptide under evaluation. At the 4 h and 24 h time points, the cells were treated with an acid wash (0.2 M glycine buffer with 0.15 M NaCl and 4 M urea, pH 2) for 5 min on ice to remove the membrane-bound peptide. After collection of acid fractions, the cells were treated with 1 M NaOH for at least 30 min and the cell debris were scraped and collected. The activity content in samples was measured using the gamma counter.

human GRPR = molecular target: T1, human GRPR (Homo sapiens, UniProt P30550); test: Affinity measurements in real time (LigandTracer) on PC-3 cells; type: binding; settings: room temperature, 1:2 fitting interaction model
T1 construct: host or cells: PC-3 human prostate adenocarcinoma cells
Method: The association curves were recorded at 1 nM and 3 nM of the radiolabeled peptides for 300 min. After reaching the plateau, the medium containing the radioligand was replaced with fresh medium and the dissociation curve was measured for about 16 h. The obtained sensorgrams were analyzed using TracerDrawer (Ridgeview Instruments AB, Uppsala, Sweden) and the dissociation constants (KD) were calculated.

[2] = 40 pmol, Carcass (whole body) uptake
[3] = 40 pmol, GI (gastrointestinal tract, GIT) uptake

T1 sequence (P30550 whole entry): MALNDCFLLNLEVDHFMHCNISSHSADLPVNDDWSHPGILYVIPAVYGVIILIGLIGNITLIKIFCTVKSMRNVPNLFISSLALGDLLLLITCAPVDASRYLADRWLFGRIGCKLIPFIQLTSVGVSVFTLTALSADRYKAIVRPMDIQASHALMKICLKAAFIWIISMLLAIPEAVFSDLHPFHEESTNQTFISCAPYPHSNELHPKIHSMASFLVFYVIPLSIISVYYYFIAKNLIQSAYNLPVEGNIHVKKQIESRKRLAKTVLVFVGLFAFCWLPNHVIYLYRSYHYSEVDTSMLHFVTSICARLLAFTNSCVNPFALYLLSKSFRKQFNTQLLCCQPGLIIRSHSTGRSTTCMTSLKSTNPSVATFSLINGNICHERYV

With `CC(C)C[C@H](NC(=O)C[C@H](O)[C@H](CC(C)C)NC(=O)[C@H](Cc1c[nH]cn1)NC(=O)CN(C)C(=O)[C@@H](NC(=O)[C@H](C)NC(=O)[C@H](Cc1c[nH]c2ccccc12)NC(=O)[C@H](CCC(N)=O)NC(=O)[C@@H](Cc1ccccc1)NC(=O)COCCOCCNC(=O)CCC(C(=O)O)N1CCN(CC(=O)O)CCN(CC(=O)O)CCN(CC(=O)O)CC1)C(C)C)C(N)=O` (stereo partly drawn) [[^111In]In-AU-RM26-M1, [^111In]In-DOTAGA-PEG2-[Sar^11]RM26, metal not drawn, reference compound] the Kidneys uptake (PC-3 xenografts; iv, 40 pmol, 4 h) was ~ 6.5 %IA/g, the Tumor uptake (PC-3 xenografts; iv, 40 pmol, 4 h) was 6 ± 2 %IA/g and the tissue uptake at 4 h (in vivo; 40 pmol, Blood uptake) was 0.04 ± 0.01 %ID/g. It also gave a tissue uptake at 4 h (in vivo; 40 pmol, Bone uptake) of 0.05 ± 0.01 %ID/g, a tissue uptake dose at 4 h (in vivo; [2]) of 1.3 ± 0.5 %ID and a tissue uptake dose at 4 h (in vivo; [3]) of 0.9 ± 0.1 %ID. For the same compound, the tissue uptake at 4 h (in vivo; 40 pmol, Kidneys uptake) was 6.4 ± 0.6 %ID/g, the tissue uptake at 4 h (in vivo; 40 pmol, Liver uptake) was 0.2 ± 0.1 %ID/g and the tissue uptake at 4 h (in vivo; 40 pmol, Lungs uptake) was 0.08 ± 0.05 %ID/g. It also gave a tissue uptake at 4 h (in vivo; 40 pmol, Muscle uptake) of 0.04 ± 0.02 %ID/g, a tissue uptake at 4 h (in vivo; 40 pmol, Pancreas uptake) of 0.2 ± 0.1 %ID/g and a tissue uptake at 4 h (in vivo; 40 pmol, Small Int uptake) of 0.1 ± 0.04 %ID/g. For the same compound, the tissue uptake at 4 h (in vivo; 40 pmol, Spleen uptake) was 0.08 ± 0.02 %ID/g, the tissue to tissue ratio at 4 h (in vivo; 40 pmol, Blood) was 133 ± 26 and the tissue to tissue ratio at 4 h (in vivo; 40 pmol, Bone) was 117 ± 16. It also gave a tissue to tissue ratio at 4 h (in vivo; 40 pmol, Kidneys) of 0.9 ± 0.2, a tissue to tissue ratio at 4 h (in vivo; 40 pmol, Liver) of 39 ± 5 and a tissue to tissue ratio at 4 h (in vivo; 40 pmol, Lungs) of 81 ± 25. The tissue to tissue ratio at 4 h (in vivo; 40 pmol, Muscle) was 234 ± 154, the tissue to tissue ratio at 4 h (in vivo; 40 pmol, Pancreas) was 27 ± 4 and the tissue to tissue ratio at 4 h (in vivo; 40 pmol, Small Int) was 57 ± 7. It also gave a tissue to tissue ratio at 4 h (in vivo; 40 pmol, Spleen) of 72 ± 9.5.

For `CC(C)C[C@H](NC(=O)C[C@H](O)[C@H](CC(C)C)NC(=O)[C@H](Cc1c[nH]cn1)NC(=O)CN(C)C(=O)[C@@H](NC(=O)[C@H](C)NC(=O)[C@H](Cc1c[nH]c2ccccc12)NC(=O)[C@H](CCC(N)=O)NC(=O)[C@@H](Cc1ccccc1)NC(=O)CN1CCC(NC(=O)COCCOCCNC(=O)CCC(C(=O)O)N2CCN(CC(=O)O)CCN(CC(=O)O)CCN(CC(=O)O)CC2)CC1)C(C)C)C(N)=O` (stereo partly drawn) [[^111In]In-AU-RM26-M2, metal not drawn], the “released [111In]In3+, ×1000 EDTA (1 h)” value ([1]; 1000-fold molar excess of EDTA) was 5.7 ± 0.7% (3), the “released [111In]In3+, PBS” value ([1]; incubation in PBS, 1 h) was 5.7 ± 0.2% (3) and the “internalized fraction at 24 h” value (PC-3 cells) was 23 ± 2%. The “kidney uptake at 24 h pi retained as % of the 4 h renal value” (PC-3 xenografts) was over 80%, the “pancreas uptake at 24 h pi as % of the initial 4 h uptake” value (PC-3 xenografts) was 40% and the “tumor uptake at 24 h pi as % of the 4 h value” (PC-3 xenografts) was 70%. The tissue uptake at 4 h (in vivo; 40 pmol, Blood uptake) was 0.003 ± 0.002 %ID/g, the tissue uptake at 24 h (in vivo; 40 pmol, Blood uptake) was 0.01 ± 0.002 %ID/g and the tissue uptake at 4 h (in vivo; 40 pmol, Bone uptake) was 0.05 ± 0.03 %ID/g. It also gave a tissue uptake at 24 h (in vivo; 40 pmol, Bone uptake) of 0.04 ± 0.02 %ID/g, a tissue uptake dose at 4 h (in vivo; [2]) of 0.8 ± 0.1 %ID and a tissue uptake dose at 24 h (in vivo; 40 pmol, Carcass uptake) of 0.5 ± 0.2 %ID. It also gave a tissue uptake dose at 4 h (in vivo; [3]) of 0.8 ± 0.5 %ID, a tissue uptake dose at 24 h (in vivo; [3]) of 0.13 ± 0.03 %ID and a tissue uptake at 4 h (in vivo; 40 pmol, Kidneys uptake) of 5 ± 1 %ID/g. For the same compound, the tissue uptake at 24 h (in vivo; 40 pmol, Kidneys uptake) was 4.1 ± 0.4 %ID/g, the tissue uptake at 4 h (in vivo; 40 pmol, Liver uptake) was 0.12 ± 0.01 %ID/g and the tissue uptake at 24 h (in vivo; 40 pmol, Liver uptake) was 0.11 ± 0.01 %ID/g. It also gave a tissue uptake at 4 h (in vivo; 40 pmol, Lungs uptake) of 0.05 ± 0.01 %ID/g, a tissue uptake at 24 h (in vivo; 40 pmol, Lungs uptake) of 0.05 ± 0.02 %ID/g and a tissue uptake at 4 h (in vivo; 40 pmol, Muscle uptake) of 0.02 ± 0.01 %ID/g. The tissue uptake at 24 h (in vivo; 40 pmol, Muscle uptake) was 0.02 ± 0.01 %ID/g, the tissue uptake at 4 h (in vivo; 40 pmol, Pancreas uptake) was 0.37 ± 0.08 %ID/g and the tissue uptake at 24 h (in vivo; 40 pmol, Pancreas uptake) was 0.15 ± 0.03 %ID/g. It also gave a tissue uptake at 4 h (in vivo; 40 pmol, Small Int uptake) of 0.1 ± 0.06 %ID/g, a tissue uptake at 24 h (in vivo; 40 pmol, Small Int uptake) of 0.06 ± 0.03 %ID/g and a tissue uptake at 4 h (in vivo; 40 pmol, Spleen uptake) of 0.07 ± 0.02 %ID/g. For the same compound, the tissue uptake at 24 h (in vivo; 40 pmol, Spleen uptake) was 0.07 ± 0.01 %ID/g, the tissue uptake at 4 h (in vivo; 40 pmol, Tumor uptake) was 7 ± 2 %ID/g and the tissue uptake at 24 h (in vivo; 40 pmol, Tumor uptake) was 4.9 ± 0.7 %ID/g. For the same compound, the tissue uptake dose at 4 h (in vivo; Carcass uptake, Block) was 1 ± 0.5 %ID and the tissue uptake dose at 4 h (in vivo; GI (gastrointestinal tract, GIT) uptake, Block) was 0.46 ± 0.03 %ID.

With `CC(C)C[C@H](NC(=O)C[C@H](O)[C@H](CC(C)C)NC(=O)[C@H](Cc1c[nH]cn1)NC(=O)CN(C)C(=O)[C@@H](NC(=O)[C@H](C)NC(=O)[C@H](Cc1c[nH]c2ccccc12)NC(=O)[C@H](CCC(N)=O)NC(=O)[C@@H](Cc1ccccc1)NC(=O)[C@H](CCCNC(=N)N)NC(=O)COCCOCCNC(=O)CCC(C(=O)O)N1CCN(CC(=O)O)CCN(CC(=O)O)CCN(CC(=O)O)CC1)C(C)C)C(N)=O` (stereo partly drawn) [[^111In]In-AU-RM26-M3, metal not drawn] the Kd (human GRPR; read-out: KD1) was 0.245 nM, the Kd (human GRPR; read-out: KD2) was 1.4 nM and the Kidneys uptake (PC-3 xenografts; iv, 40 pmol, 4 h) was ~ 3.5 %IA/g. It also gave a tissue uptake at 4 h (in vivo; 40 pmol, Blood uptake) of 0.024 ± 0.002 %ID/g, a tissue uptake at 4 h (in vivo; 40 pmol, Bone uptake) of 0.06 ± 0.01 %ID/g and a tissue uptake dose at 4 h (in vivo; [2]) of 1.7 ± 0.3 %ID. For the same compound, the tissue uptake dose at 4 h (in vivo; [3]) was 1.3 ± 0.9 %ID, the tissue uptake at 4 h (in vivo; 40 pmol, Kidneys uptake) was 3.4 ± 0.2 %ID/g and the tissue uptake at 4 h (in vivo; 40 pmol, Liver uptake) was 0.17 ± 0.01 %ID/g. The tissue uptake at 4 h (in vivo; 40 pmol, Lungs uptake) was 0.12 ± 0.01 %ID/g, the tissue uptake at 4 h (in vivo; 40 pmol, Muscle uptake) was 0.03 ± 0.01 %ID/g and the tissue uptake at 4 h (in vivo; 40 pmol, Pancreas uptake) was 0.06 ± 0.01 %ID/g. The tissue uptake at 4 h (in vivo; 40 pmol, Small Int uptake) was 0.08 ± 0.03 %ID/g, the tissue uptake at 4 h (in vivo; 40 pmol, Spleen uptake) was 0.08 ± 0.01 %ID/g and the tissue uptake at 4 h (in vivo; 40 pmol, Tumor uptake) was 2.5 ± 0.6 %ID/g. For the same compound, the tissue to tissue ratio at 4 h (in vivo; 40 pmol, Blood) was 104, the tissue to tissue ratio at 4 h (in vivo; 40 pmol, Bone) was 39 ± 8 and the tissue to tissue ratio at 4 h (in vivo; 40 pmol, Kidneys) was 0.7 ± 0.2. For the same compound, the tissue to tissue ratio at 4 h (in vivo; 40 pmol, Liver) was 15 ± 4.5, the tissue to tissue ratio at 4 h (in vivo; 40 pmol, Lungs) was 33 ± 22 and the tissue to tissue ratio at 4 h (in vivo; 40 pmol, Muscle) was 75 ± 18. It also gave a tissue to tissue ratio at 4 h (in vivo; 40 pmol, Pancreas) of 45 ± 15, a tissue to tissue ratio at 4 h (in vivo; 40 pmol, Small Int) of 35 ± 15 and a tissue to tissue ratio at 4 h (in vivo; 40 pmol, Spleen) of 31 ± 9.
